Nine substances from patent US20170065725A1 can be followed below.

For orientation: IC50 means the concentration that gives 50% inhibition.

porcine TSH receptor (immobilized, TSH Receptor Autoantibody 2nd Generation ELISA kit, RSR Limited) (porcine), sequence (Q8SPP9 22-764 limits assumed): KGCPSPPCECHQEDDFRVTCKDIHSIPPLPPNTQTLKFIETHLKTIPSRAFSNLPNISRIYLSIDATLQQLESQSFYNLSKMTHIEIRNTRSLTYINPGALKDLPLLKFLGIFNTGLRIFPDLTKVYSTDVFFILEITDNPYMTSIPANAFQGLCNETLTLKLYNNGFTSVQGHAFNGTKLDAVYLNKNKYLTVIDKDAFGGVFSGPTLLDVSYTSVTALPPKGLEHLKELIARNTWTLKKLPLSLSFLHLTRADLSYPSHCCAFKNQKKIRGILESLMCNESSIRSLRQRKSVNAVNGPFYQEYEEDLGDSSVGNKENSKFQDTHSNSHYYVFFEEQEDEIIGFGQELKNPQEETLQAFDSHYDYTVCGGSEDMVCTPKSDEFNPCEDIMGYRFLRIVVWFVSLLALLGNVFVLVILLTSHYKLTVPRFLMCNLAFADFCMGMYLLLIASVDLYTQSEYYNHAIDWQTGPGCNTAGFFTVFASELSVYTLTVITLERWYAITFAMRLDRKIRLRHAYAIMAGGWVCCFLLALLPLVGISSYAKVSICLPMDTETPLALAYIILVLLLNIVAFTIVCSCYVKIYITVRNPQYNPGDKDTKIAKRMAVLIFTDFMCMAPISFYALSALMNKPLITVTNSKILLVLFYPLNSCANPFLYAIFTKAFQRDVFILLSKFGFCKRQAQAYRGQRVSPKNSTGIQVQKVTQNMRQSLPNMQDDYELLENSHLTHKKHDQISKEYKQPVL
PEG rhTSH (40 KD GAM+), monoPEGylated (ligand), sequence (P01215 25-116): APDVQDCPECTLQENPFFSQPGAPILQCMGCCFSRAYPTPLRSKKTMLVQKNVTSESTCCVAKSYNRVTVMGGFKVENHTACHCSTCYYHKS
PEG rhTSH (40 KD GAM+), monoPEGylated (ligand), sequence (P01222 21-138, further chain): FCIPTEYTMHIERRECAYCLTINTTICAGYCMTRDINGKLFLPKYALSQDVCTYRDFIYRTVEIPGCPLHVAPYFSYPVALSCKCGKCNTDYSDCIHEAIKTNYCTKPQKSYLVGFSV
PEG rhTSH (40 KD SAM), monoPEGylated (ligand), sequence (P01215 25-116): as the sequence (P01215 25-116) above
PEG rhTSH (40 KD SAM), monoPEGylated (ligand), sequence (P01222 21-138, further chain): as the sequence (P01222 21-138, further chain) above
PEG rhTSH (10 KD MultiSAM) (ligand), sequence (P01215 25-116): as the sequence (P01215 25-116) above
PEG rhTSH (10 KD MultiSAM) (ligand), sequence (P01222 21-138, further chain): as the sequence (P01222 21-138, further chain) above
PEG rhTSH (10 KD SAM), monoPEGylated (ligand), sequence (P01215 25-116): as the sequence (P01215 25-116) above
PEG rhTSH (10 KD SAM), monoPEGylated (ligand), sequence (P01222 21-138, further chain): as the sequence (P01222 21-138, further chain) above
PEG rhTSH (20 KD SAM), monoPEGylated (ligand), sequence (P01215 25-116): as the sequence (P01215 25-116) above
PEG rhTSH (20 KD SAM), monoPEGylated (ligand), sequence (P01222 21-138, further chain): as the sequence (P01222 21-138, further chain) above
PEG rhTSH (20 KD GAM-), monoPEGylated (ligand), sequence (P01215 25-116): as the sequence (P01215 25-116) above
PEG rhTSH (20 KD GAM-), monoPEGylated (ligand), sequence (P01222 21-138, further chain): as the sequence (P01222 21-138, further chain) above
mono-40 kDa NHS PEG-TSH (Lysine PEGylation) (ligand), sequence (P01215 25-116): as the sequence (P01215 25-116) above
mono-40 kDa NHS PEG-TSH (Lysine PEGylation) (ligand), sequence (P01222 21-138, further chain): as the sequence (P01222 21-138, further chain) above
PEG rhTSH (40 KD GAM-), monoPEGylated (ligand), sequence (P01215 25-116): as the sequence (P01215 25-116) above
PEG rhTSH (40 KD GAM-), monoPEGylated (ligand), sequence (P01222 21-138, further chain): as the sequence (P01222 21-138, further chain) above
PEG rhTSH (20 KD GAM+), monoPEGylated (ligand), sequence (P01215 25-116): as the sequence (P01215 25-116) above
PEG rhTSH (20 KD GAM+), monoPEGylated (ligand), sequence (P01222 21-138, further chain): as the sequence (P01222 21-138, further chain) above

The assay has as its target porcine TSH receptor (immobilized, TSH Receptor Autoantibody 2nd Generation ELISA kit, RSR Limited) (porcine) (UniProt Q8SPP9). Kind of assay: competition ELISA; inhibition of biotinylated rhTSH binding to immobilized porcine TSH receptor. (In an ELISA, binding on a coated surface is turned into a signal by an enzyme label.)
The substance PEG rhTSH (10 KD MultiSAM) (ligand) gave a 50% inhibitory concentration (IC50) of 138 nM and a fold change (IC50 against rhTSH) of 3.8 fold.

As to “PEG rhTSH (10 KD SAM), monoPEGylated (ligand)”, the IC50 came out at 78.1 nM and the fold change (IC50 against rhTSH) came out at 2.1 fold.

With “PEG rhTSH (20 KD GAM+), monoPEGylated (ligand)”, the IC50 came to 81.7 nM and the fold change (IC50 against rhTSH) worked out at 2.2 fold.

In turn, “PEG rhTSH (20 KD GAM-), monoPEGylated (ligand)” displayed an IC50 of 101 nM and a fold change (IC50 against rhTSH) of 2.7 fold.

Turning to “PEG rhTSH (20 KD SAM), monoPEGylated (ligand)”, the IC50 is 92.3 nM and the fold change (IC50 against rhTSH) came out at 2.5 fold.

With “PEG rhTSH (40 KD GAM+), monoPEGylated (ligand)”, the IC50 was 133 nM and the fold change (IC50 against rhTSH) was found to be 3.6 fold.

“PEG rhTSH (40 KD GAM-), monoPEGylated (ligand)” had a 50% inhibitory concentration (IC50) of 294 nM and a fold change (IC50 against rhTSH) of 8 fold.

Take “PEG rhTSH (40 KD SAM), monoPEGylated (ligand)”: the IC50 stood at 196 nM and the fold change (IC50 against rhTSH) came to 5.3 fold.

Consider “mono-40 kDa NHS PEG-TSH (Lysine PEGylation) (ligand)”, for which the IC50 was 876 nM and the fold change (IC50 against rhTSH) came out at 31.2 fold.
